Results on two molecules are retold here after paper PMC2119555.

Test [1] addresses murine FGFR-1 (flg) expressed on CHO cells (murine) (UniProt P16092). Put plainly: radioligand binding.
Test [2] deals with murine FGFR-2 (bek) expressed on CHO cells (murine) (UniProt P21803). As to the kind of experiment: radioligand binding.

Several values for one entry are separate records, joined by “and”; a condition that tells them apart may be missing. Equal entries are not always repeated.

B1: recombinant wild-type K-FGF (human K-FGF/HST, FGF-4) (ligand)
chain: APTAPNGTLEAELERRWESLVALSLARLPVAAQPKEAAVQSGAGDYLLGIKRLRRLYCNVGIGFHLQALPDGRIGGAHADTRDSLLELSPVERGVVSIFGVASRFFVAMSSKGKLYGSPFFTDECTFKEILLPNNYNAYESYKYPGMFIALSKNGKTKKGNRVSPTMKVTHFLPRL
modifications: 125I-labeled Bolton-Hunter reagent (where used as the labelled ligand)
B1: in test [1], the dissociation constant (Kd) was 0.28 nM and the fold more unlabeled competitor required than of K140 worked out at 5 fold. Also, the Kd in test [2] stood at 0.14 nM.

B2: recombinant K140 (NH2-terminally truncated K-FGF, residues 67-206) (ligand)
chain: MAAVQSGAGDYLLGIKRLRRLYCNVGIGFHLQALPDGRIGGAHADTRDSLLELSPVERGVVSIFGVASRFFVAMSSKGKLYGSPFFTDECTFKEILLPNNYNAYESYKYPGMFIALSKNGKTKKGNRVSPTMKVTHFLPRL
modifications: 125I-labeled Bolton-Hunter reagent (where used as the labelled ligand)
Molecule B2 showed a Kd in test [1] of 0.09 nM. In test [2], the Kd amounted to 0.06 nM; the fold affinity over K-FGF (competition) was found to be 2 fold; the fold affinity over bFGF and K-FGF (competition against 125I-bFGF) is 2 fold and 3 fold.

One may read the Kd as the concentration at which binding is half-saturated.
